In patent US7901879B2, “Lactoferrin in the treatment of malignant neoplasms and other hyperproliferative diseases” (Agennix Incorporated, priority 2002, dated 2011):
Values joined by “and” are separate entries in the source; they are usually repeats but may differ in a detail not shown here. Equal entries are not always repeated. Marks after values point to notes of the source that are not given here.

What was measured:
[1] = system: NK-activity against YAC targets; assay: Ex vivo NK activity of spleen NK cells against YAC targets (LDH release) after oral rhLF; type: in vivo, Balb/c naïve mice; conditions: for % Cytotoxicity Increased over ctrl: rhLF minus placebo; for % Cytotoxicity Final: oral 300 mg/kg/day 3 days
Procedure: Balb/c naïve mice were treated orally with rhLF or placebo once a day for 3 days (see Table 4).
On day 4, mice were sacrificed and spleens were collected. NK cells were separated using a magnetic bead cell sorting assay (MACS anti-NK-DX5) and counted. Cells were then tested in vitro for NK-activity against YAC targets using a lactate dehydrogenase (LDH) release test.
Balb/c naïve mice were treated orally with rhLF or placebo once a day for 3 days. One day later (day 4), mice were sacrificed and spleens collected. NK cells were separated using a magnetic bead cell sorting assay (MACS anti-NK-DX5) and counted. Cells were then tested in vitro for NK-activity against YAC targets using a lactate dehydrogenase (LDH) release test.

[2] = system: murine squamous carcinoma cell line (SCCVII); assay: SCCVII floor-of-mouth tumor growth, oral rhLF and/or cisplatin (Example 6); type: in vivo, immunocompetent C3H mice; conditions: rhLF alone 200 mg/kg oral once daily days 5-12
Procedure: A murine squamous carcinoma cell line (SCCVII) was injected into the floor of the mouth through the neck skin of immunocompetent C3H mice (Day 0). […] Tumors were measured in three dimensions with calipers.
Tumor-bearing mice were randomized into a control group and seven groups receiving rhLF and/or cisplatin. RhLF (4 mg; 200 mg/Kg) was administered once daily by oral gavage for 8 days on days 5 through 12. Cisplatin was administered as a single dose of 5 mg/Kg given intraperitoneally either at the start of rhLF (day 5), in the middle (day 8) or at the end (day 12) of rhLF therapy. Animals were sacrificed on day 12 post-implantation and the residual tumor masses were measured and processed for later additional analyses.

[3] = system: murine squamous carcinoma cell line (SCCVII); assay: SCCVII tumor growth, oral rhLF and/or radiotherapy (Example 9); type: in vivo, immunocompetent C3H mice
Procedure: A murine squamous carcinoma cell line (SCCVII) was injected into the floor of mouth through the neck skin of immunocompetent C3H mice (Day 0). […] Tumors were measured in three dimensions with calipers.
Tumor-bearing mice were randomized into six groups receiving rhLF (200 mg/Kg) and/or radiotherapy as described below. RhLF (4 mg; 200 mg/kg) was administered by oral gavage once daily for 8 days on days 5 through 12. Radiotherapy was administered as single dose of 2 Gray given at the beginning (day 5) or at during (day 8) rhLF-therapy. Animals were sacrificed on day 14 post-treatment and the residual tumor masses were measured and processed for later additional analyses.

B1: Recombinant human lactoferrin (protein, UniProt P02788 20-710, looked up)
Lactotransferrin: GRRRSVQWCAVSQPEATKCFQWQRNMRKVRGPPVSCIKRDSPIQCIQAIAENRADAVTLDGGFIYEAGLAPYKLRPVAAEVYGTERQPRTHYYAVAVVKKGGSFQLNELQGLKSCHTGLRRTAGWNVPIGTLRPFLNWTGPPEPIEAAVARFFSASCVPGADKGQFPNLCRLCAGTGENKCAFSSQEPYFSYSGAFKCLRDGAGDVAFIRESTVFEDLSDEAERDEYELLCPDNTRKPVDKFKDCHLARVPSHAVVARSVNGKEDAIWNLLRQAQEKFGKDKSPKFQLFGSPSGQKDLLFKDSAIGFSRVPPRIDSGLYLGSGYFTAIQNLRKSEEEVAARRARVVWCAVGEQELRKCNQWSGLSEGSVTCSSASTTEDCIALVLKGEADAMSLDGGYVYTAGKCGLVPVLAENYKSQQSSDPDPNCVDRPVEGYLAVAVVRRSDTSLTWNSVKGKKSCHTAVDRTAGWNIPMGLLFNQTGSCKFDEYFSQSCAPGSDPRSNLCALCIGDEQGENKCVPNSNERYYGYTGAFRCLAENAGDVAFVKDVTVLQNTDGNNNEAWAKDLKLADFALLCLDGKRKPVTEARSCHLAMAPNHAVVSRMDKVERLKQVLLHQQAKFGRNGSDCPDKFCLFQSETKNLLFNDNTECLARLHGKTTYEKYLGPQYVAGITNLKKCSTSPLLEACEFLRK
notes: human lactoferrin produced recombinantly
B1 was tested, and the “relative increase of NK activity over placebo-treated animals” value ([1]; 30:1 E:T ratio, p<0.05) was 243%, the “% Cytotoxicity Increased over ctrl” value ([1]; E:T ratio 3.7:1) was 0% and the “% Cytotoxicity Increased over ctrl” value ([1]; E:T ratio 7.5:1) was 0%. The “% Cytotoxicity Increased over ctrl” value ([1]; E:T ratio 15:1) was 1.3%, the “% Cytotoxicity Increased over ctrl” value ([1]; E:T ratio 30:1) was 7** % and the “% Cytotoxicity Final” value ([1]; E:T ratio 3.7:1) was 0%. The “% Cytotoxicity Final” value ([1]; E:T ratio 7.5:1) was 0.44%, the “% Cytotoxicity Final” value ([1]; E:T ratio 15:1) was 4.12% and the “% Cytotoxicity Final” value ([1]; E:T ratio 30:1, 300 mg/kg/day) was 10% and 9.81%. For the same molecule, the “% Cytotoxicity Final” value ([1]; E:T ratio 30:1, listed as RhLF, 300 mg/kg/day) was 9.81%, the “TGI (%) Relative to Placebo” value [2] was 33% and the “Inhibition Relative to Placebo” value ([3]; both rhLF/Rad groups pooled (D/F)) was 67%. The “Inhibition Relative to Placebo” value ([3]; rhLF 200 mg/kg oral days 5-12 plus radiation 2 Gray on day 5) was 68%, the “Inhibition Relative to Placebo” value ([3]; rhLF 200 mg/kg oral days 5-12 plus radiation 2 Gray on day 8) was 66% and the “Inhibition Relative to Placebo” value ([3]; rhLF alone 200 mg/kg oral once daily days 5-12) was 54%. For the same molecule, the “increase in TGI over monotherapy with rhLF” value ([3]; rhLF plus radiation, P<0.05) was 28% and the “increase in TGI over monotherapy with radiation” value ([3]; rhLF plus radiation, P=0.1207) was 15%.
